Test results from PMC9544432 (Proteins, 2021).
Changes are numbered by the printed parent chain. Read-outs that look alike come from different tables or passages of the source.

Tests used:
Test in all cases: SPR
VEGFR2(D2–3) D257A/E261A = biological target: T1, VEGFR2(D2–3) D257A/E261A (human)
T1 chain: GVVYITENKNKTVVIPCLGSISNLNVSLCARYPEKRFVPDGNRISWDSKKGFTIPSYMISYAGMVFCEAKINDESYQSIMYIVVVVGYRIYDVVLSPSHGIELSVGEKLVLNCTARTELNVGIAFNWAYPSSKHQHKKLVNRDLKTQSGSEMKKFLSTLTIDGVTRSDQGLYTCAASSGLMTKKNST

[1] = biological target: T2, VEGFR2(D2–3), domains 2 and 3 of the extracellular portion of human VEGFR2, wild type (human)
T2 chain: T1 chain with A124D, A128E

[2] = biological target: T2, VEGFR2(D2–3), domains 2 and 3 of the …

Kd (VEGFR2(D2–3) D257A/E261A): 35.8 nM
Kd [1]: 1.3 nM
Kd [2]: 0.22 nM
B1: KD035 antigen-binding fragment (Fab) (Fab, V domains shown)
VH: EVQLLESGGGLVQPGGSLRLSCAASGFTFSWYVMGWVRQAPGKGLEWVSSIYPSGGATNYADSVKGRFTISRDNSKNTLYLQMNSLRAEDTAVYYCARGNYFDYWGQGTLVTVSS
VL: QSVLTQPPSVSVSPGQTASITCSGEKLGDEYASWYQQKPGQSPVLVIYQDNKRPSGIPERFSGSNSGNTATLTISGTQAMDEADYYCQAWDSSTLLFGGGTKLTVL
